The source of these data is PMC6171324.

Series [1] can be described thus: weighing, 28 days post-MI. The conditions noted are these: glycan lost; control: Luc modRNA.
Series [2] can be described thus: CD45 staining 7 days post-MI. The conditions noted are these: glycan lost; control: hFSTL1 modRNA.
The nature of series [3]: CM size in heart sections 7 days post-MI. The conditions noted are these: glycan lost; control: control constructs.
The nature of series [4]: echography, %EF and %FS, 28 days post-MI. The conditions noted are these: glycan lost; control: Luc modRNA (hFSTL1 modRNA not significant).
The nature of series [5]: Masson trichrome staining, 28 days post-MI. The conditions noted are these: glycan lost; control: Luc modRNA (hFSTL1 modRNA not significant).
The nature of series [6]: CD31 staining, left ventricle, 28 days post-MI. The conditions noted are these: glycan lost; control: Luc modRNA.
Series [7] can be described thus: proliferation markers in non-CMs 7 days post-MI. The conditions noted are these: glycan lost; control: hFSTL1 modRNA.

B1: human FSTL 1 (hFSTL1): N180Q (Mut-1) (protein)
parent chain: MWKRWLALALALVAVAWVRAEEELRSKSKICANVFCGAGRECAVTEKGEPTCLCIEQCKPHKRPVCGSNGKTYLNHCELHRDACLTGSKIQVDYDGHCKEKKSVSPSASPVVCYQSNRDELRRRIIQWLEAEIIPDGWFSKGSNYSEILDKYFKNFDNGDSRLDSSEFLKFVEQNETAINITTYPDQENNKLLRGLCVDALIELSDENADWKLSFQEFLKCLNPSFNPPEKKCALEDETYADGAETEVDCNRCVCACGNWVCTAMTCDGKNQKGAQTQTEEEMTRYVQELQKHQETAEKTKRVSTKEI
Consider B1, for which the “other: heart weight-to-body weight ratio” value in series [1] is given as “increases”. In addition, the “other: leukocyte infiltration in heart” value in series [2] is recorded as “no change”. Also, in series [3], the “other: CM size / hypertrophy” value is “no change”. Also, in series [4], the “other: cardiac function post-MI” value is “increases”. In addition, the “other: scar size post-MI” value in series [5] is reported as “decreases”. Besides, in series [6], the “other: capillary density post-MI” value was “increases”. Also, the “other: non-CM proliferation in heart” value in series [7] is on record as “no change”.

B2: human FSTL 1 (hFSTL1): Mut-(1–3) (protein)
parent chain: MWKRWLALALALVAVAWVRAEEELRSKSKICANVFCGAGRECAVTEKGEPTCLCIEQCKPHKRPVCGSNGKTYLNHCELHRDACLTGSKIQVDYDGHCKEKKSVSPSASPVVCYQSNRDELRRRIIQWLEAEIIPDGWFSKGSNYSEILDKYFKNFDNGDSRLDSSEFLKFVEQNETAINITTYPDQENNKLLRGLCVDALIELSDENADWKLSFQEFLKCLNPSFNPPEKKCALEDETYADGAETEVDCNRCVCACGNWVCTAMTCDGKNQKGAQTQTEEEMTRYVQELQKHQETAEKTKRVSTKEI
With B2, in series [2], the “other: leukocyte infiltration in heart” value is on record as “no change”. Besides, the “other: CM size / hypertrophy” value in series [3] is “no change”. The “other: cardiac function post-MI” value in series [4] is listed as “no change”. Further, the “other: scar size post-MI” value in series [5] was “no change”. Besides, in series [7], the “other: non-CM proliferation in heart” value was “no change”.

B3: human FSTL 1 (hFSTL1): N175Q (Mut-2) (protein)
parent chain: MWKRWLALALALVAVAWVRAEEELRSKSKICANVFCGAGRECAVTEKGEPTCLCIEQCKPHKRPVCGSNGKTYLNHCELHRDACLTGSKIQVDYDGHCKEKKSVSPSASPVVCYQSNRDELRRRIIQWLEAEIIPDGWFSKGSNYSEILDKYFKNFDNGDSRLDSSEFLKFVEQNETAINITTYPDQENNKLLRGLCVDALIELSDENADWKLSFQEFLKCLNPSFNPPEKKCALEDETYADGAETEVDCNRCVCACGNWVCTAMTCDGKNQKGAQTQTEEEMTRYVQELQKHQETAEKTKRVSTKEI
Turning to B3, the “other: leukocyte infiltration in heart” value in series [2] was “no change”. For the same protein, the “other: non-CM proliferation in heart” value in series [7] is on record as “no change”.

B4: human FSTL 1 (hFSTL1): N144Q (Mut-3) (protein)
parent chain: MWKRWLALALALVAVAWVRAEEELRSKSKICANVFCGAGRECAVTEKGEPTCLCIEQCKPHKRPVCGSNGKTYLNHCELHRDACLTGSKIQVDYDGHCKEKKSVSPSASPVVCYQSNRDELRRRIIQWLEAEIIPDGWFSKGSNYSEILDKYFKNFDNGDSRLDSSEFLKFVEQNETAINITTYPDQENNKLLRGLCVDALIELSDENADWKLSFQEFLKCLNPSFNPPEKKCALEDETYADGAETEVDCNRCVCACGNWVCTAMTCDGKNQKGAQTQTEEEMTRYVQELQKHQETAEKTKRVSTKEI
For the protein B4, in series [2], the “other: leukocyte infiltration in heart” value is recorded as “no change”. The “other: non-CM proliferation in heart” value in series [7] is reported as “no change”.
